Experimental data reported in patent publication US20230235013A1 (MABSOLVE, published 2023).
Numbering of substitutions follows the chain as printed. Names and notes keep the numbering of the source. Each block holds one binder with its values, some of them ahead of it.

Legend:
[1] = biological target: T1, Human C1q (Sigma Cat. No. 20476), HRP-labelled (human, UniProt P02745 23-245; P02746 28-253; P02747 29-245); experiment: ELISA, antibody coated, HRP-C1q; Expt 1, buffer alone 0.053
T1 construct: Coupled to horse-radish peroxidase with Lightning-Link kit; also called HRP-labelled C1q

[2] = biological target: T1, Human C1q (Sigma Cat. No. 20476), …; experiment: ELISA, antibody coated, HRP-C1q; Expt 2, buffer alone 0.051
[3] = biological target: T2, human FcRn (R&D Systems Cat. No. 8639-Fc) (human, UniProt P55899 24-297; P61769 21-119); experiment: SPR, FcRn captured via anti-His, pH 6.0;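 note: SPR binding signal relative to the reference cell, corrected by subtracting the response of a blank sample of running buffer alone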
[4] = biological target: T3, cynomolgus monkey FcRn (Sino Biological Cat. No. CT031-C08H) (cynomolgus monkey, UniProt Q8SPV9 24-297; Q8SPW0 21-119); experiment: SPR, FcRn captured via anti-His, pH 6.0;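 note: SPR binding signal relative to the reference cell, corrected by subtracting the response of a blank sample of running buffer alone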
T3 construct: Bought protein, captured on an anti-histidine chip; also called cynomolgus FcRn

[5] = biological target: T4, mouse FcRn (Sino Biological Cat. No. CT029-M08H) (mouse, UniProt Q61559 22-297; P01887 21-119); experiment: SPR, FcRn captured via anti-His, pH 6.0;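 note: SPR binding signal relative to the reference cell, corrected by subtracting the response of a blank sample of running buffer alone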
T4 construct: Bought protein, captured on an anti-histidine chip
T4 sequence (looked up): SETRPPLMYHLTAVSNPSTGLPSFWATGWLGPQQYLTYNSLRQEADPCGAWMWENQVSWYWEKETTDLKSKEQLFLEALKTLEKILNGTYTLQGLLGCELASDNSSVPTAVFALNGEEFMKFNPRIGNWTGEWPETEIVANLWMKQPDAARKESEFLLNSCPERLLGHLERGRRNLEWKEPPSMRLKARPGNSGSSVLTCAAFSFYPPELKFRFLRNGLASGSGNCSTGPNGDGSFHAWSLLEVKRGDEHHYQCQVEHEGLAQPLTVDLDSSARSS
T4 sequence (b2m, looked up): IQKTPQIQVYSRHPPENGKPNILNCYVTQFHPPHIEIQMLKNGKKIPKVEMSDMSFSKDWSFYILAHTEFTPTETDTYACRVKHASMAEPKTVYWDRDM

[6] = biological target: T2, human FcRn (R&D Systems Cat. No. …); experiment: SPR, FcRn captured; Mean
[7] = biological target: T2, human FcRn (R&D Systems Cat. No. …); experiment: SPR, FcRn captured; Expt 1
[8] = biological target: T2, human FcRn (R&D Systems Cat. No. …); experiment: SPR, FcRn captured; Expt 2
[9] = biological target: T2, human FcRn (R&D Systems Cat. No. …); experiment: SPR, FcRn captured; Expt 3
[10] = biological target: T1, Human C1q (Sigma Cat. No. 20476), …; experiment: ELISA, antibody coated, HRP-C1q; Expt 1, buffer alone 0.061

Mean Absorbance [1]: 1.42 absorbance (450 nm)
Mean Absorbance [2]: 0.649 absorbance (450 nm)
B1: anti-CD52 (alemtuzumab) human IgG1 wild-type reference (antibody)
heavy: not shown
light: not shown
notes: also called 4-1; copies: 2 + 2

Mean Absorbance [1]: 0.051 absorbance (450 nm)
Mean Absorbance [2]: 0.044 absorbance (450 nm)
B2: anti-CD52 (alemtuzumab) human IgG1 N297Q (aglycosyl) (antibody)
heavy: not shown
light: not shown
notes: EU numbering; also called 4-67; copies: 2 + 2

Mean Absorbance [1]: 0.056 absorbance (450 nm)
Mean Absorbance [2]: 0.052 absorbance (450 nm)
B3: anti-CD52 (alemtuzumab) human IgG1 L234T/L235Q/G236R (antibody)
heavy: QVQLQESGPGLVRPSQTLSLTCTVSGFTFTDFYMNWVRQPPGRGLEWIGFIRDKAKGYTTEYNPSVKGRVTMLVDTSKNQFSLRLSSVTAADTAVYYCAREGHTAAPFDYWGQGSLVTVSSASTKGPSVFPLAPSSKSTSGGTAALGCLVKDYFPEPVTVSWNSGALTSGVHTFPAVLQSSGLYSLSSVVTVPSSSLGTQTYICNVNHKPSNTKVDKKVEPKSCDKTHTCPPCPAPETQRGPSVFLFPPKPKDTLMISRTPEVTCVVVDVSHEDPEVKFNWYVDGVEVHNAKTKPREEQYNSTYRVVSVLTVLHQDWLNGKEYKCKVSNKALPAPIEKTISKAKGQPREPQVYTLPPSRDELTKNQVSLTCLVKGFYPSDIAVEWESNGQPENNYKTTPPVLDSDGSFFLYSKLTVDKSRWQQGNVFSCSVMHEALHNHYTQKSLSLSPGK
light: not shown
notes: EU numbering; also called 4-60; copies: 2 + 2

Mean Absorbance [1]: 0.057 absorbance (450 nm)
Mean Absorbance [2]: 0.059 absorbance (450 nm)
B4: anti-CD52 (alemtuzumab) human IgG1 L234S/L235V/G236R (antibody)
heavy: B3 heavy with T238S, Q239V
light: not shown
notes: EU numbering; also called 4-53; copies: 2 + 2

Mean Absorbance [1]: 0.052 absorbance (450 nm)
Mean Absorbance [2]: 0.053 absorbance (450 nm)
B5: anti-CD52 (alemtuzumab) human IgG1 L234S/L235T/G236R (antibody)
heavy: B3 heavy with T238S, Q239T
light: not shown
notes: EU numbering; also called 4-52; copies: 2 + 2

Mean Absorbance [1]: 0.053 absorbance (450 nm)
Mean Absorbance [2]: 0.056 absorbance (450 nm)
B6: anti-CD52 (alemtuzumab) human IgG1 L234G/L235S/G236R (antibody)
heavy: B3 heavy with T238G, Q239S
light: not shown
notes: EU numbering; also called 4-19; copies: 2 + 2

Corrected response (RU) [3]: 570 RU
Corrected response (RU) [4]: 1290 RU
Corrected response (RU) [5]: 173 RU
B7: anti-CD20 (rituximab) human IgG1 G236R (antibody)
heavy: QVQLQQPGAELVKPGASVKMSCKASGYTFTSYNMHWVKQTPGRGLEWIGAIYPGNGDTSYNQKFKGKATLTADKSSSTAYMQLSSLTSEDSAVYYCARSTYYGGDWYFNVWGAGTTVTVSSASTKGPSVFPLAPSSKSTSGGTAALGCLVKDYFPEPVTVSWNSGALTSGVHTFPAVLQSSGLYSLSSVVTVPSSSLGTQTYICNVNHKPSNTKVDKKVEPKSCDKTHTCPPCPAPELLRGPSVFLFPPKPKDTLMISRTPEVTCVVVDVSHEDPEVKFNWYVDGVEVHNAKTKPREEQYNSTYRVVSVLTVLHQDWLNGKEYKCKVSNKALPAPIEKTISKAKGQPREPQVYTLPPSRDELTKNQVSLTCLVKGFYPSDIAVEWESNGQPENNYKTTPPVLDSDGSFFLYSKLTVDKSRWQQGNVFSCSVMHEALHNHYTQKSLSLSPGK
light: QIVLSQSPAILSASPGEKVTMTCRASSSVSYIHWFQQKPGSSPKPWIYATSNLASGVPVRFSGSGSGTSYSLTISRVEAEDAATYYCQQWTSNPPTFGGGTKLEIKRTVAAPSVFIFPPSDEQLKSGTASVVCLLNNFYPREAKVQWKVDNALQSGNSQESVTEQDSKDSTYSLSSTLTLSKADYEKHKVYACEVTHQGLSSPVTKSFNRGEC
notes: EU numbering; also called 2-81; copies: 2 + 2

Corrected response (RU) [3]: 490 RU
Corrected response (RU) [4]: 1160 RU
Corrected response (RU) [5]: 170 RU
B8: anti-CD20 (rituximab) human IgG1 L234Q/L235D/G236R (antibody)
heavy: QVQLQQPGAELVKPGASVKMSCKASGYTFTSYNMHWVKQTPGRGLEWIGAIYPGNGDTSYNQKFKGKATLTADKSSSTAYMQLSSLTSEDSAVYYCARSTYYGGDWYFNVWGAGTTVTVSSASTKGPSVFPLAPSSKSTSGGTAALGCLVKDYFPEPVTVSWNSGALTSGVHTFPAVLQSSGLYSLSSVVTVPSSSLGTQTYICNVNHKPSNTKVDKKVEPKSCDKTHTCPPCPAPEQDRGPSVFLFPPKPKDTLMISRTPEVTCVVVDVSHEDPEVKFNWYVDGVEVHNAKTKPREEQYNSTYRVVSVLTVLHQDWLNGKEYKCKVSNKALPAPIEKTISKAKGQPREPQVYTLPPSRDELTKNQVSLTCLVKGFYPSDIAVEWESNGQPENNYKTTPPVLDSDGSFFLYSKLTVDKSRWQQGNVFSCSVMHEALHNHYTQKSLSLSPGK
light: B7 light
notes: EU numbering; also called 2-28; copies: 2 + 2

Corrected response (RU) [3]: 547 RU
Corrected response (RU) [4]: 1250 RU
Corrected response (RU) [5]: 146 RU
B9: anti-CD20 (rituximab) human IgG1 L235G/G236R (antibody)
heavy: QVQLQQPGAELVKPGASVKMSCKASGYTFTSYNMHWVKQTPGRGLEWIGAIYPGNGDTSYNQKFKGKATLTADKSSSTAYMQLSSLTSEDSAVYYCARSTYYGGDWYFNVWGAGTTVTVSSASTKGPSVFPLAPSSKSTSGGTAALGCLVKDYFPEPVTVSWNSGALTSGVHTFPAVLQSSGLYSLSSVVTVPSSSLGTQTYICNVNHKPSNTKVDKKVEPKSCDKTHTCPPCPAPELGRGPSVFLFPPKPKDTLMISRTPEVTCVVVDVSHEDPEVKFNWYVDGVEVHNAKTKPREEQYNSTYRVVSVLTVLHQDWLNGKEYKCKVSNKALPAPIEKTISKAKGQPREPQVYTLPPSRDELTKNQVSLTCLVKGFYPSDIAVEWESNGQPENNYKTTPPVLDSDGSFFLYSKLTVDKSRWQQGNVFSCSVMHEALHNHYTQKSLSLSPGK
light: B7 light
notes: EU numbering; also called 2-83; copies: 2 + 2

Corrected and normalised response (% of wild-type reference) [6]: 93.5 % of wild-type reference
Corrected and normalised response (% of wild-type reference) [7]: 94.5 % of wild-type reference
Corrected and normalised response (% of wild-type reference) [8]: 93.4 % of wild-type reference
Corrected and normalised response (% of wild-type reference) [9]: 92.8 % of wild-type reference
Corrected response (RU) [3]: 513 RU
Corrected response (RU) [4]: 1220 RU
Corrected response (RU) [5]: 154 RU
Mean Absorbance [10]: 0.048 absorbance (450 nm)
B10: anti-CD20 (rituximab) human IgG1 L234Q/L235A/G236R (antibody)
heavy: not shown
light: B7 light
notes: EU numbering; also called 2-27; copies: 2 + 2

Corrected response (RU) [3]: 530 RU
Corrected response (RU) [4]: 1220 RU
Corrected response (RU) [5]: 189 RU
B11: anti-CD20 (rituximab) human IgG1 L235S/G236R (antibody)
heavy: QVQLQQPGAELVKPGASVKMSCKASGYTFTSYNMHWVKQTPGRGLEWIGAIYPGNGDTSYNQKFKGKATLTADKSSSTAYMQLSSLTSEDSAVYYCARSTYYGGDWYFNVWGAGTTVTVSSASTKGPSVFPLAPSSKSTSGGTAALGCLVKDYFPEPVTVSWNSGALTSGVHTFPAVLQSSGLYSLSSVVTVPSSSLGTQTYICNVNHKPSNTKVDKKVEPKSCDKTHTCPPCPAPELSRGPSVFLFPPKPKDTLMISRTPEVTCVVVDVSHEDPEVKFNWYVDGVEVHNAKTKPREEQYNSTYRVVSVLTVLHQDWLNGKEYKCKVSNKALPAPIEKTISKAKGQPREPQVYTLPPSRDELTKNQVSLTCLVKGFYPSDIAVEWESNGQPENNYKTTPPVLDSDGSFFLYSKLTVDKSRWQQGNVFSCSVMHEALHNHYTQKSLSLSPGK
light: B7 light
notes: EU numbering; also called 2-80; copies: 2 + 2

Corrected response (RU) [3]: 507 RU
Corrected response (RU) [4]: 1200 RU
Corrected response (RU) [5]: 145 RU
B12: anti-CD20 (rituximab) human IgG1 L234D/L235S/G236R (antibody)
heavy: B8 heavy with Q238D, D239S
light: B7 light
notes: EU numbering; also called 2-10; 1-29; copies: 2 + 2

Corrected response (RU) [3]: 509 RU
Corrected response (RU) [4]: 1170 RU
Corrected response (RU) [5]: 142 RU
B13: anti-CD20 (rituximab) human IgG1 L234Q/L235S, sample 2-82 (antibody)
heavy: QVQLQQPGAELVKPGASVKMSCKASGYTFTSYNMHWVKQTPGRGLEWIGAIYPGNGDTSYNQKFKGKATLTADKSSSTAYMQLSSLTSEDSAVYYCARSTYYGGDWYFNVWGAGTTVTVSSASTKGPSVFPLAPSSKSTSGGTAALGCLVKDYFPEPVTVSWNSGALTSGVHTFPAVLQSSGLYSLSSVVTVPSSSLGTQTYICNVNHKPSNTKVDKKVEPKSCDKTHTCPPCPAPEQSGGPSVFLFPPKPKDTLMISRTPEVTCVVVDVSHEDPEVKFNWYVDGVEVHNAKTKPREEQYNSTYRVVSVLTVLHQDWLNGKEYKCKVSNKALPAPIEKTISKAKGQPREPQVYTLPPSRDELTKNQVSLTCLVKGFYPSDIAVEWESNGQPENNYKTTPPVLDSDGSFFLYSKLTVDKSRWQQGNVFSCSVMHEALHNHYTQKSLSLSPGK
light: B7 light
notes: EU numbering; copies: 2 + 2

Corrected response (RU) [3]: 533 RU
Corrected response (RU) [4]: 1240 RU
Corrected response (RU) [5]: 180 RU
B14: anti-CD20 (rituximab) human IgG1 L234Q/L235R/G236R (antibody)
heavy: B8 heavy with D239R
light: B7 light
notes: EU numbering; also called 2-32; copies: 2 + 2

Corrected response (RU) [3]: 540 RU
Corrected response (RU) [4]: 1240 RU
Corrected response (RU) [5]: 168 RU
B15: anti-CD20 (rituximab) human IgG1 L235A/G236R (antibody)
heavy: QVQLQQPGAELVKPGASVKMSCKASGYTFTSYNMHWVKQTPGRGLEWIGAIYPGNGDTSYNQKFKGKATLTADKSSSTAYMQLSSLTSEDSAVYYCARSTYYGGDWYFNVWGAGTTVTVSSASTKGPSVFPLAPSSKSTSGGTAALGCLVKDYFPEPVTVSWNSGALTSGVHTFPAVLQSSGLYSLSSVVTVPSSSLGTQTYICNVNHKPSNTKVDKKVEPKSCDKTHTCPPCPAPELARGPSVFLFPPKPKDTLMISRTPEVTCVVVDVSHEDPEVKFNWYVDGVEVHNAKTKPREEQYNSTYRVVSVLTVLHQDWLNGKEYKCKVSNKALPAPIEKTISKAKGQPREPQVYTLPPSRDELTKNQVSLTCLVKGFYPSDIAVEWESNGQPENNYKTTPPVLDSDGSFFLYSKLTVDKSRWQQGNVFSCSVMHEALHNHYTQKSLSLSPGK
light: B7 light
notes: EU numbering; also called 2-79; copies: 2 + 2

Corrected response (RU) [3]: 567 RU
Corrected response (RU) [4]: 1290 RU
Corrected response (RU) [5]: 206 RU
B16: anti-CD20 (rituximab) human IgG1 G236R/L328R (antibody)
heavy: not shown
light: B7 light
notes: EU numbering; also called 2-68; copies: 2 + 2

Mean Absorbance [1]: 0.047 absorbance (450 nm)
Mean Absorbance [2]: 0.042 absorbance (450 nm)
B17: anti-CD3 (muromonab) human IgG1 L234S/L235V/G236R (antibody)
heavy: not shown
light: QIVLTQSPAIMSASPGEKVTMTCSASSSVSYMNWYQQKSGTSPKRWIYDTSKLASGVPAHFRGSGSGTSYSLTISGMEAEDAATYYCQQWSSNPFTFGSGTKLEIKRTVAAPSVFIFPPSDEQLKSGTASVVCLLNNFYPREAKVQWKVDNALQSGNSQESVTEQDSKDSTYSLSSTLTLSKADYEKHKVYACEVTHQGLSSPVTKSFNRGEC
notes: EU numbering; also called 3-53; copies: 2 + 2

Mean Absorbance [1]: 0.047 absorbance (450 nm)
Mean Absorbance [2]: 0.045 absorbance (450 nm)
B18: anti-CD3 (muromonab) human IgG1 L234T/L235Q/G236R (antibody)
heavy: not shown
light: B17 light
notes: EU numbering; also called 3-60; copies: 2 + 2

Mean Absorbance [1]: 0.052 absorbance (450 nm)
Mean Absorbance [2]: 0.051 absorbance (450 nm)
B19: anti-CD3 (muromonab) human IgG1 N297Q (aglycosyl) (antibody)
heavy: not shown
light: B17 light
notes: EU numbering; also called 3-67; copies: 2 + 2

Mean Absorbance [1]: 0.047 absorbance (450 nm)
Mean Absorbance [2]: 0.048 absorbance (450 nm)
B20: anti-CD3 (muromonab) human IgG1 L234T/L235T/G236R (antibody)
heavy: not shown
light: B17 light
notes: EU numbering; also called 3-63; copies: 2 + 2

Mean Absorbance [1]: 1.45 absorbance (450 nm)
Mean Absorbance [2]: 0.953 absorbance (450 nm)
B21: anti-CD20 (rituximab variable regions) mouse IgG2a L234Q/L235S/G236R (antibody)
heavy: QVQLQQPGAELVKPGASVKMSCKASGYTFTSYNMHWVKQTPGRGLEWIGAIYPGNGDTSYNQKFKGKATLTADKSSSTAYMQLSSLTSEDSAVYYCARSTYYGGDWYFNVWGAGTTVTVSSAKTTAPSVYPLAPVCGDTTGSSVTLGCLVKGYFPEPVTLTWNSGSLSSGVHTFPAVLQSDLYTLSSSVTVTSSTWPSQSITCNVAHPASSTKVDKKIEPRGPTIKPCPPCKCPAPNQSRGPSVFIFPPKIKDVLMISLSPIVTCVVVDVSEDDPDVQISWFVNNVEVHTAQTQTHREDYNSTLRVVSALPIQHQDWMSGKEFKCKVNNKDLPAPIERTISKPKGSVRAPQVYVLPPPEEEMTKKQVTLTCMVTDFMPEDIYVEWTNNGKTELNYKNTEPVLDSDGSYFMYSKLRVEKKNWVERNSYSCSVVHEGLHNHHTTKSFSRTPGK
light: QIVLSQSPAILSASPGEKVTMTCRASSSVSYIHWFQQKPGSSPKPWIYATSNLASGVPVRFSGSGSGTSYSLTISRVEAEDAATYYCQQWTSNPPTFGGGTKLEIKRADAAPTVSIFPPSSEQLTSGGASVVCFLNNFYPKDINVKWKIDGSERQNGVLNSWTDQDSKDSTYSMSSTLTLTKDEYERHNSYTCEATHKTSTSPIVKSFNRNEC
notes: copies: 2 + 2
